Article PMC9602544

Biological target: human plasma fibronectin (human)
Test: ELISA; whole-cell ELISA; 1 ug human plasma Fn coated on Maxisorp wells, blocked with 2% BSA; ca. 2.5 x 10^7 washed bacteria added for 2 h at 37°C; attached bacteria detected with anti-B. henselae IgG, absorbance at 450 nm; triplicate

Chain of human plasma fibronectin (human) (P02751 32-2477): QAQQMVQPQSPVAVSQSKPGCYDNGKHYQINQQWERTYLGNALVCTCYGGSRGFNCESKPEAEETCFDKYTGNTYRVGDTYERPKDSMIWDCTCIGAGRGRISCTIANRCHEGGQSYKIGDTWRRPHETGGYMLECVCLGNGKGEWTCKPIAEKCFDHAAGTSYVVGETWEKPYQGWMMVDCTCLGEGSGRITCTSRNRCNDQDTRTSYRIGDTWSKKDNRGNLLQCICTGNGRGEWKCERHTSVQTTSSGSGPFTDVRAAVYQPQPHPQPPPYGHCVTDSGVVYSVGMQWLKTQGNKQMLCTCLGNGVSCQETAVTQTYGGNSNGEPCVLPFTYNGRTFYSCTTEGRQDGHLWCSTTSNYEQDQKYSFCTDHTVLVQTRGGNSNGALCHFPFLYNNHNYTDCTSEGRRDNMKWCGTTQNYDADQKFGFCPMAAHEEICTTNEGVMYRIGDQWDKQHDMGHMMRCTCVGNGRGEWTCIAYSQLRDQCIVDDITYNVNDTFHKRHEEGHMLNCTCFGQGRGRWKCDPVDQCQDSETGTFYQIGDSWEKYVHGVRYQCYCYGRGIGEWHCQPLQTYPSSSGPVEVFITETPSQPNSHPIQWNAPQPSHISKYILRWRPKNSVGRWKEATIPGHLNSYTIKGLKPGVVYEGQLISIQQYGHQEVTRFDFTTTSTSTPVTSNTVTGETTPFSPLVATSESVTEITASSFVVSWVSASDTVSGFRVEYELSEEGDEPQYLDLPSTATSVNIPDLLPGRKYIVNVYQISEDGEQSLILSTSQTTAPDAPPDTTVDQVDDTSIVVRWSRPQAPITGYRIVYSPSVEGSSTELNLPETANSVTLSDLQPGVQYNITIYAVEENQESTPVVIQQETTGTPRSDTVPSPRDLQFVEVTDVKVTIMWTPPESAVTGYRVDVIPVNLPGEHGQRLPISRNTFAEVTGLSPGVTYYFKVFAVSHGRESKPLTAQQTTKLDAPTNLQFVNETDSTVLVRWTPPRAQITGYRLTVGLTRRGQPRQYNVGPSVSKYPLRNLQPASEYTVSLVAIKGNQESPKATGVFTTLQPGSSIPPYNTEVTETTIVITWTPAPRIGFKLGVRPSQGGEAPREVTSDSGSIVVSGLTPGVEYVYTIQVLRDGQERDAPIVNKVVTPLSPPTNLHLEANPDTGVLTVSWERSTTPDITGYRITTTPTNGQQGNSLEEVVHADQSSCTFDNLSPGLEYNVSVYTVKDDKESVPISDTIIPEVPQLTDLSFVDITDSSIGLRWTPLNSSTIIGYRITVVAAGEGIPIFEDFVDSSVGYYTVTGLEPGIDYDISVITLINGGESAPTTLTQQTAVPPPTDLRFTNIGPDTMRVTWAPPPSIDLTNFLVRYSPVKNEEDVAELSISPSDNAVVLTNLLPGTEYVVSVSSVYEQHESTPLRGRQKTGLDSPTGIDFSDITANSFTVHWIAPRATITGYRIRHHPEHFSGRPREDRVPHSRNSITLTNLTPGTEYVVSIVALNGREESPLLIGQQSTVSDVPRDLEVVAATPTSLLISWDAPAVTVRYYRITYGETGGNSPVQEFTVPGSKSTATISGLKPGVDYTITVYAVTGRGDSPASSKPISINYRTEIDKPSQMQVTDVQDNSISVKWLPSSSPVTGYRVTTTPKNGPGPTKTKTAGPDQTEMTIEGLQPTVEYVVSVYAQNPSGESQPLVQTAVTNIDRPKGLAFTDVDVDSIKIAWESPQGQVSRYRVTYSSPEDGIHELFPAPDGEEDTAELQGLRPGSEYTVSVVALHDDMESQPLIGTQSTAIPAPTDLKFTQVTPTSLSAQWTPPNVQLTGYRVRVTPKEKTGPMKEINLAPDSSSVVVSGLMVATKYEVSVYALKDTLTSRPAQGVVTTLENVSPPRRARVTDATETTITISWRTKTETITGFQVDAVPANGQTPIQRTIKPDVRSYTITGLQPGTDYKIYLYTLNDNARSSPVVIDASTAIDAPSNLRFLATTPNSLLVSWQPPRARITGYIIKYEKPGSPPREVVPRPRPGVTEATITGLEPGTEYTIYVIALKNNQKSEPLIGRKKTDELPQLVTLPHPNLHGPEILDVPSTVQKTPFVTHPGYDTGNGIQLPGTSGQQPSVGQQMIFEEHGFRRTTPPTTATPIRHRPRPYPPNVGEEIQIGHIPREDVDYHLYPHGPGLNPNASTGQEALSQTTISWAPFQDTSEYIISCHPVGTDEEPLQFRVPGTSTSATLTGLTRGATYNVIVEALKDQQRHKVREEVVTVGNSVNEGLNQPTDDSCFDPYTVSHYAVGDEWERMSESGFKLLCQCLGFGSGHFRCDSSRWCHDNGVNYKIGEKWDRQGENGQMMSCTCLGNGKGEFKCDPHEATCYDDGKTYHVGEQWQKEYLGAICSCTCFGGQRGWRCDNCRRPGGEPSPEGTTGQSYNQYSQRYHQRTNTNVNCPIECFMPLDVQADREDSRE

Bartonella adhesin A (BadA) of B. henselae Marseille, wild type (from UniProt Q5MWV9 48-3082) (natural protein)
absorbance at 450 nm, whole-cell ELISA: 0.908
